According to patent publication US20160024214A1 (Novo Nordisk, published 2016):
Several values for one entry are separate records, joined by “and”; a condition that tells them apart may be missing. Equal entries are not always repeated. Where two headings read alike, the source gives them in different places. Blank lines part the entries; values can stand above or below the molecule they belong to.

Experiments:
[1] = biological target: T1, human NKG2D (hNKG2D) on the cell surface (human, UniProt P26718 1-216); experiment: flow cytometry, NKG2D-expressing cells; pre-incubation with 149810, then ON72 as competitor (post-incubation antibody)
T1 construct: BaF/3 cells co-transfected with full-length NKG2D and DAP10, or native receptor on human NK, CD8+ and gamma-delta T cells of PBMC / whole blood; also called cell-surface NKG2D; NKG2D/DAP10-expressing BaF/3 cells
T1 chain: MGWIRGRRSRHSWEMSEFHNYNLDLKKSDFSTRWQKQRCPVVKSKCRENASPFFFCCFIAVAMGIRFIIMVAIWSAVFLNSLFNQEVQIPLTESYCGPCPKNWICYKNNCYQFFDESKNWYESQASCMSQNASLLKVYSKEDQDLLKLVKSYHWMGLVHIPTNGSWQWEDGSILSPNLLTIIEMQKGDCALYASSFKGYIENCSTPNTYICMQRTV

[2] = biological target: T1, human NKG2D (hNKG2D) on the cell surface; experiment: flow cytometry, NKG2D/DAP10 BaF/3 cells, dose-response
[3] = biological target: T1, human NKG2D (hNKG2D) on the cell surface; experiment: flow cytometry, NKG2D-expressing cells; 149810 first, then 16F16 as competitor
[4] = biological target: T1, human NKG2D (hNKG2D) on the cell surface; experiment: cell-based or functional assay
[5] = biological target: T1, human NKG2D (hNKG2D) on the cell surface; experiment: flow cytometry, NKG2D-expressing cells; ON72 first, then 16F16 as competitor (FIG. 9A legend)
[6] = biological target: T1, human NKG2D (hNKG2D) on the cell surface; experiment: flow cytometry, NKG2D-expressing cells; ON72 first, then 16F16 as competitor
[7] = biological target: recombinant NKG2D-Fc (R&D Systems) (human) (UniProt P26718); experiment: SPR (Biacore), antibody over immobilised NKG2D-Fc, Langmuir fit
[8] = biological target: T1, human NKG2D (hNKG2D) on the cell surface; experiment: flow cytometry, NKG2D/DAP10 BaF/3 cells; antibody pre-incubated, then 1 µg hFc-MICA as competitor
[9] = biological target: T1, human NKG2D (hNKG2D) on the cell surface; experiment: as above
[10] = biological target: T2, soluble hNKG2D fragment (residues 81-216 of SEQ ID NO:2) (human, UniProt P26718 81-216); experiment: complex purified by gel filtration; X-ray crystal structure 3.15 Å
T2 construct: Homodimer in the crystal with two hzON72 Fab molecules
T2 sequence: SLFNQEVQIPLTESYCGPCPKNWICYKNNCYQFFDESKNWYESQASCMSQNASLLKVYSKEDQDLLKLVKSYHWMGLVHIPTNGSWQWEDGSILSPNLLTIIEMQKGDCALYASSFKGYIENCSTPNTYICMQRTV

Molecule: ON72 (murine anti-hNKG2D antibody, Beckman Coulter)
% proliferation of PBMC, stimulation CD3 0.1 + CD28 + ON72 (immobilized) [4]: 22.9%
% proliferation of PBMC, stimulation CD3 0.1 + ON72 (immobilized) [4]: 7.12%
% proliferation of PBMC, stimulation CD3 0.3 + CD28 + ON72 (immobilized) [4]: 40.1%
% proliferation of PBMC, stimulation CD3 0.3 + ON72 (immobilized) [4]: 28.4%
EC50 (µg/ml), inhibition of NK-cell killing of ULPB3-expressing target cells (51Cr release) [4]: 0.065 µg/mL
down-modulation of cell-surface NKG2D, NKG2D/DAP10 BaF/3 cells, overnight, 1 µg [4]: 55%
internalization of NKG2D at 1 h, NKG2D+ lymphocytes in whole blood, 0.1 µg/ml [4]: 50 to 75%
internalization of NKG2D at 24 h, NKG2D+ lymphocytes in whole blood, 0.1 µg/ml [4]: 100%
% of 16F16 binding prevented [5]: 85%
EC50 [2]: 0.062 µg/mL and 0.048 nM
% of 16F16 binding blocked [6]: 82%
Kd [7]: 0.17 nM
koff [7]: 0.00011 s⁻¹
kon [7]: 960000 M⁻¹ s⁻¹
IC50 [8]: 0.019 µg/mL
full blockade of 1 µg MICA-Fc [8]: 0.54 µg/mL
IC50 [9]: 0.02 nM
full blockade of 1 µg MICA-Fc [9]: 0.24 nM

B1: hzON72 Fab (humanized version of ON72 Fab fragment) (Fab, V domains shown)
VH: QVQLVQSGAEVKKPGASVKVSCKASGYTFTNYWMHWVRQAPGQGLEWMGEIDPSDIYTNYAQKFQGRVTMTRDTSTSTVYMELSSLRSEDTAVYYCARGIYDGYYVYGMDYWGQGTTVTVSS
VL: YIQMTQSPSSLSASVGDRVTITCRSSQDISNYLNWYQQKPGKAPKLLIYYTSRLHSGVPSRFSGSGSGTDFTFTISSLQPEDIATYYCQQGKTLPRTFGGGTKVEIKR
binding result [10]: binds

The remaining lines, values ahead:

Inhibition (%) [1]: 85%
EC50 [2]: 0.063 µg/mL and 0.042 nM
% blockade of 16F16 binding [3]: 50%
Molecule: 149810 (murine anti-hNKG2D antibody, R&D Systems)

EC50 [2]: 0.034 nM
B2: 16F16 (recombinantly expressed, IgG4 isotype) (antibody, V domains shown)
VH: EVQLVESGGGLVKPGGSLRLSCAASGFTFSSYSMNWVRQAPGKGLEWVSSITSSSSYIYYADSVKGRFTISRDNAKNSLYLQMNSLRAEDTAVYYCARDRRYFDWFPLDYRGQGTLVTVSS
VL: DIQMTQSPSSLSASVGDRVTITCRASQGISSWLAWYQQKPEKAPKSLIYAASSLQSGVPSRFSGSGSGTDFTLTISSLQPEDFATYYCQQYNGYPYTFGQGTKLEIKR
notes: Fully human anti-hNKG2D antibody from KM mouse hybridoma; variable regions cloned into human IgG4 framework, expressed in HEK293 cells, protein A purified; also called 16F16 IgG4; 16F16 (IgG4)
